Results as given in publication PMC10589216, “Lactate dehydrogenase D is a general dehydrogenase for D-2-hydroxyacids and is associated with D-lactic acidosis” (Nature Communications, 2023).

Legend:
mLDHD [1] = target: T1, mLDHD (Mus musculus, UniProt Q7TNG8, H405A); experiment: X-ray crystal structure (soak); assay type: binding; details: FAD-bound crystals; no Mn2+ at active site; DL mixture soaked
T1 construct: gene Ldhd
T1 sequence (Q7TNG8 22-484 H405A): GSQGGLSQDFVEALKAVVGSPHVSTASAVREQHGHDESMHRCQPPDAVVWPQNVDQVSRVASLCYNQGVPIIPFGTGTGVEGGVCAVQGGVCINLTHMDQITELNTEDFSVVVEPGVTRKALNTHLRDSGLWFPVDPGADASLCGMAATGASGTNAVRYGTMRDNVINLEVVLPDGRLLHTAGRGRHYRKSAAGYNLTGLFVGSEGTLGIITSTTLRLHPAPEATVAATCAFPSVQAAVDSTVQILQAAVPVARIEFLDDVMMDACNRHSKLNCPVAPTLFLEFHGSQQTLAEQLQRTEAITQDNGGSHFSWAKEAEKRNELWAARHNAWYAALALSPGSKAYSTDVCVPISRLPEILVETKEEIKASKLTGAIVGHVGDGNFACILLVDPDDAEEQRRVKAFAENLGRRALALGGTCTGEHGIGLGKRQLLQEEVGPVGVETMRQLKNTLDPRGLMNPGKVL

mLDHD [2] = target: T2, mLDHD (Mus musculus, UniProt Q7TNG8); experiment: X-ray crystal structure, […] Å; assay type: binding; details: non-covalently bound, co-purified from expression host
T2 construct: gene Ldhd
T2 sequence (Q7TNG8 22-484): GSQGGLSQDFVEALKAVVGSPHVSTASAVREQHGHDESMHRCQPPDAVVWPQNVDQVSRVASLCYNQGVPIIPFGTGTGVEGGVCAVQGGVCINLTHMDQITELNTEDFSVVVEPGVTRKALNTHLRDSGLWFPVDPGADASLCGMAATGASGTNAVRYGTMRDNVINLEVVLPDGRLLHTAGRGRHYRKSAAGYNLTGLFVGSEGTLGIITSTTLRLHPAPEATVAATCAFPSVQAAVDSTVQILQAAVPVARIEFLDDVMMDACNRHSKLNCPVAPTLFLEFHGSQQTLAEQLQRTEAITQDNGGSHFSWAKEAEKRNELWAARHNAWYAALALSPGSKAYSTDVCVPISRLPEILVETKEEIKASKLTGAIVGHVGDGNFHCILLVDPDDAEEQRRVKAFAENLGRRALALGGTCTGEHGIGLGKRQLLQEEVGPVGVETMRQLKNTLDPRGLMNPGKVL

purified protein [3] = substrate: C[C@@H](O)C(=O)O; experiment: purified protein; details: 50 mM Tris-HCl pH 7.4, 50 μM MnCl2, 200 μM PMS, 100 μM DCIP, 37 °C
purified protein [4] = substrate: CC(C)CC(O)C(=O)O; experiment: purified protein; assay type: biochemical, Mus musculus; details: 50 mM Tris-HCl pH 7.4, 50 μM MnCl2, 200 μM PMS, 100 μM DCIP, 37 °C, racemate, KM calculated on D-isomer concentration
purified protein [5] = substrate: CC(C)[C@@H](O)C(=O)O; experiment: purified protein; assay type: biochemical, Mus musculus; details: 50 mM Tris-HCl pH 7.4, 50 μM MnCl2, 200 μM PMS, 100 μM DCIP, 37 °C
purified protein [6] = substrate: CCCC(O)C(=O)O; experiment: purified protein; assay type: biochemical, Mus musculus; details: 50 mM Tris-HCl pH 7.4, 50 μM MnCl2, 200 μM PMS, 100 μM DCIP, 37 °C, racemate, KM calculated on D-isomer concentration
purified protein [7] = substrate: CCCCCCC(O)C(=O)O; experiment: purified protein; assay type: biochemical, Mus musculus; details: 50 mM Tris-HCl pH 7.4, 50 μM MnCl2, 200 μM PMS, 100 μM DCIP, 37 °C
purified protein [8] = substrate: O=C(O)[C@H](O)Cc1ccccc1; experiment: purified protein; assay type: biochemical, Mus musculus; details: 50 mM Tris-HCl pH 7.4, 50 μM MnCl2, 200 μM PMS, 100 μM DCIP, 37 °C
purified protein [9] = substrate: CC[C@@H](O)C(=O)O; experiment: purified protein; assay type: biochemical, Mus musculus; details: 50 mM Tris-HCl pH 7.4, 50 μM MnCl2, 200 μM PMS, 100 μM DCIP, 37 °C
purified protein [10] = substrate: CCC(C)C(O)C(=O)O; experiment: purified protein; assay type: biochemical, Mus musculus; details: 50 mM Tris-HCl pH 7.4, 50 μM MnCl2, 200 μM PMS, 100 μM DCIP, 37 °C
purified protein [11] = substrate: CCCCC(O)C(=O)O; experiment: purified protein; assay type: biochemical, Mus musculus; details: 50 mM Tris-HCl pH 7.4, 50 μM MnCl2, 200 μM PMS, 100 μM DCIP, 37 °C

For `CCC[C@@H](O)C(=O)O` (mixture of isomers) [D-2-HV, D-2-hydroxyvalerate], the “X-ray crystal structure (soak)” value (mLDHD [1]) was “mLDHDH405A in complex with FAD and D-2-hydroxyvalerate (PDB 8JDN)”.

`CCCCCC[C@@H](O)C(=O)O` (mixture of isomers) [D-2-HO, D-2-hydroxyoctanoate] was tested, and the “X-ray crystal structure (soak)” value (mLDHD [1]) was “mLDHDH405A in complex with FAD and D-2-hydroxyoctanoate (PDB 8JDB)”.

In the case of `CC(C)C[C@@H](O)C(=O)O` (mixture of isomers) [D-2-HIC, D-2-hydroxyisocaproate], the “X-ray crystal structure (soak)” value (mLDHD [1]) is reported as “mLDHDH405A in complex with FAD and D-2-hydroxyisocaproate (PDB 8JDQ)”.

`Cc1cc2nc3c(=O)[nH]c(=O)nc-3n(C[C@H](O)[C@H](O)[C@H](O)COP(=O)(O)OP(=O)(O)OC[C@H]3O[C@@H](n4cnc5c(N)ncnc54)[C@H](O)[C@@H]3O)c2cc1C` [FAD] was tested, and the “X-ray crystal structure, 1.70 Å” value (mLDHD [2]) was “mLDHD in complex with FAD (PDB 8JDC)”.

B1: mLDHD (Mus musculus) (protein)
chain: GSQGGLSQDFVEALKAVVGSPHVSTASAVREQHGHDESMHRCQPPDAVVWPQNVDQVSRVASLCYNQGVPIIPFGTGTGVEGGVCAVQGGVCINLTHMDQITELNTEDFSVVVEPGVTRKALNTHLRDSGLWFPVDPGADASLCGMAATGASGTNAVRYGTMRDNVINLEVVLPDGRLLHTAGRGRHYRKSAAGYNLTGLFVGSEGTLGIITSTTLRLHPAPEATVAATCAFPSVQAAVDSTVQILQAAVPVARIEFLDDVMMDACNRHSKLNCPVAPTLFLEFHGSQQTLAEQLQRTEAITQDNGGSHFSWAKEAEKRNELWAARHNAWYAALALSPGSKAYSTDVCVPISRLPEILVETKEEIKASKLTGAIVGHVGDGNFHCILLVDPDDAEEQRRVKAFAENLGRRALALGGTCTGEHGIGLGKRQLLQEEVGPVGVETMRQLKNTLDPRGLMNPGKVL
In the case of B1, the Km (purified protein [3]) is reported as 122.0 ± 4.5 µM, the Vmax (purified protein [3]) is reported as 1.22 µmol/min/mg and the kcat (purified protein [3]) is reported as 1.02 s⁻¹. For the same molecule, the kcat/Km (purified protein [3]) was 8330 M⁻¹ s⁻¹, the Km (purified protein [4]) was 16.4 ± 0.7 µM and the Vmax (purified protein [4]) was 0.902 µmol/min/mg. The kcat (purified protein [4]) was 0.752 ± 0.0133 s⁻¹, the kcat/Km (purified protein [4]) was 45800 M⁻¹ s⁻¹ and the Km (purified protein [5]) was 13.9 ± 1.2 µM. The Vmax (purified protein [5]) was 1.11 µmol/min/mg, the kcat (purified protein [5]) was 0.925 ± 0.015 s⁻¹ and the kcat/Km (purified protein [5]) was 66500 M⁻¹ s⁻¹. For the same molecule, the Km (purified protein [6]) was 31.4 ± 2.7 µM, the Vmax (purified protein [6]) was 1.12 µmol/min/mg and the kcat (purified protein [6]) was 0.933 ± 0.0183 s⁻¹. It also gave a kcat/Km (purified protein [6]) of 29700 M⁻¹ s⁻¹, a Km (purified protein [7]) of 104.0 ± 9.0 µM and a Vmax (purified protein [7]) of 0.409 µmol/min/mg. For the same molecule, the kcat (purified protein [7]) was 0.342 ± 0.00833 s⁻¹, the kcat/Km (purified protein [7]) was 3280 M⁻¹ s⁻¹ and the Km (purified protein [8]) was 337.0 ± 44.0 µM. For the same molecule, the Vmax (purified protein [8]) was 0.788 µmol/min/mg, the kcat (purified protein [8]) was 0.657 ± 0.03 s⁻¹ and the kcat/Km (purified protein [8]) was 1950 M⁻¹ s⁻¹. For the same molecule, the Km (purified protein [9]) was 62.9 ± 2.8 µM, the Vmax (purified protein [9]) was 1.6 µmol/min/mg and the kcat (purified protein [9]) was 1.33 ± 0.015 s⁻¹. It also gave a kcat/Km (purified protein [9]) of 21200 M⁻¹ s⁻¹, a Km (purified protein [10]) of 16.5 ± 0.1 µM and a Vmax (purified protein [10]) of 1.01 µmol/min/mg. The kcat (purified protein [10]) was 0.842 ± 0.01 s⁻¹, the kcat/Km (purified protein [10]) was 51000 M⁻¹ s⁻¹ and the Km (purified protein [11]) was 34.9 ± 1.6 µM. For the same molecule, the Vmax (purified protein [11]) was 1.48 µmol/min/mg, the kcat (purified protein [11]) was 1.233 ± 0.0117 s⁻¹ and the kcat/Km (purified protein [11]) was 35300 M⁻¹ s⁻¹.
